# According to US20180251489A1:
# Molecular target: mucosa-associated lymphoid tissue lymphoma translocation protein 1 (UniProt Q9UDY8)
# Experiment: enzyme inhibition assay, 100 nM MALT1
# Sequence of mucosa-associated lymphoid tissue lymphoma translocation protein 1 (Q9UDY8 340-789): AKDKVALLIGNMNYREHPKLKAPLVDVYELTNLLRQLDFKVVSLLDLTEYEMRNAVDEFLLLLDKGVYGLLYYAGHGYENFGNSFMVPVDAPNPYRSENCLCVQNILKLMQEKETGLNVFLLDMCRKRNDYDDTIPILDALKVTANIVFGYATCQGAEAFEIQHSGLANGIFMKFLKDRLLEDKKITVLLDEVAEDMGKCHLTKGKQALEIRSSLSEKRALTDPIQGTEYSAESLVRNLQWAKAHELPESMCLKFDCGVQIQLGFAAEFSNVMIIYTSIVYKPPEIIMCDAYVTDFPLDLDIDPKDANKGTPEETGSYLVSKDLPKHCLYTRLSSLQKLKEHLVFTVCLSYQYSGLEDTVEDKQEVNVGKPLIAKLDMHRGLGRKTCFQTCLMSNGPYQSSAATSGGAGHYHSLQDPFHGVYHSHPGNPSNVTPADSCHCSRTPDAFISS
row,Substance,Ki
1,(S)-N-((S)-1-Fluoro-6-guanidino-2-oxohexan-3-yl)-1-((4-morpholinobenzoyl)-L-valyl)pyrrolidine-2-carboxamide (peptide),75 nM
2,(S)-N-((S)-1-Fluoro-6-guanidino-2-oxohexan-3-yl)-1-((phenylcarbamoyl)-L-valyl)pyrrolidine-2-carboxamide (peptide),52 nM
3,(S)-N-((S)-1-fluoro-6-guanidino-2-oxohexan-3-yl)-1-((3-(4-methylpiperazin-1-yl)benzoyl)-L-valyl)pyrrolidine-2-carboxamide (peptide),175 nM
4,(S)-N-((S)-1-fluoro-6-guanidino-2-oxohexan-3-yl)-1-((3-morpholinobenzoyl)-L-valyl)pyrrolidine-2-carboxamide (peptide),58 nM
5,(S)-N-((S)-1-fluoro-6-guanidino-2-oxohexan-3-yl)-1-((4-(trifluoromethyl)benzoyl)-L-valyl)pyrrolidine-2-carboxamide (peptide),132 nM
6,Benzyl (1-((S)-2-(((S)-1-fluoro-6-guanidino-2-oxohexan-3-yl)carbamoyl)pyrrolidine-1-carbonyl)cyclopentyl)carbamate (peptide),1180 nM
7,Benzyl ((R)-2-((S)-2-(((S)-1-fluoro-6-guanidino-2-oxohexan-3-yl)carbamoyl)pyrrolidin-1-yl)-2-oxo-1-(pyridin-3-yl)ethyl)carbamate (peptide),146 nM
8,"Benzyl ((S)-1-((2S,4R)-2-(((S)-1-fluoro-6-guanidino-2-oxohexan-3-yl)carbamoyl)-4-hydroxypyrrolidin-1-yl)-3-methyl-1-oxobutan-2-yl)carbamate (peptide)",53 nM
9,Benzyl ((S)-1-((S)-2-(((S)-1-fluoro-6-guanidino-2-oxohexan-3-yl)carbamoyl)-2-methylpyrrolidin-1-yl)-3-methyl-1-oxobutan-2-yl)carbamate (peptide),158 nM
10,Benzyl ((S)-1-((S)-2-(((S)-1-fluoro-6-guanidino-2-oxohexan-3-yl)carbamoyl)pyrrolidin-1-yl)-1-oxo-3-phenylpropan-2-yl)carbamate (peptide),76 nM
11,Benzyl ((S)-1-((S)-2-(((S)-1-fluoro-6-guanidino-2-oxohexan-3-yl)carbamoyl)pyrrolidin-1-yl)-3-methyl-1-oxobutan-2-yl)(methyl)carbamate (peptide),808 nM
12,Benzyl ((S)-1-((S)-2-(((S)-1-fluoro-6-guanidino-2-oxohexan-3-yl)carbamoyl)pyrrolidin-1-yl)-4-methyl-1-oxopentan-2-yl)carbamate (peptide),93 nM
13,Benzyl ((S)-2-((S)-2-(((S)-1-fluoro-6-guanidino-2-oxohexan-3-yl)carbamoyl)pyrrolidin-1-yl)-2-oxo-1-(pyridin-3-yl)ethyl)carbamate (peptide),55 nM
14,Benzyl ((S)-2-((S)-2-(((S)-1-fluoro-6-guanidino-2-oxohexan-3-yl)carbamoyl)pyrrolidin-1-yl)-2-oxo-1-phenylethyl)carbamate (peptide),154 nM
15,N-((S)-1-((S)-2-(((S)-1-Fluoro-6-guanidino-2-oxohexan-3-yl)carbamoyl)pyrrolidin-1-yl)-3-methyl-1-oxobutan-2-yl)-1-methyl-1H-pyrazole-4-carboxamide (peptide),100 nM
16,N-((S)-1-((S)-2-(((S)-1-Fluoro-6-guanidino-2-oxohexan-3-yl)carbamoyl)pyrrolidin-1-yl)-3-methyl-1-oxobutan-2-yl)-2-methylthiazole-4-carboxamide (peptide),52 nM
17,N-((S)-1-((S)-2-(((S)-1-Fluoro-6-guanidino-2-oxohexan-3-yl)carbamoyl)pyrrolidin-1-yl)-3-methyl-1-oxobutan-2-yl)-2-morpholinothiazole-4-carboxamide (peptide),111 nM
18,N-((S)-1-((S)-2-(((S)-1-fluoro-6-guanidino-2-oxohexan-3-yl)carbamoyl)pyrrolidin-1-yl)-3-methyl-1-oxobutan-2-yl)-5-phenylthiazole-2-carboxamide (peptide),121 nM
19,N-((S)-1-((S)-2-(((S)-1-fluoro-6-guanidino-2-oxohexan-3-yl)carbamoyl)pyrrolidin-1-yl)-3-methyl-1-oxobutan-2-yl)isoquinoline-6-carboxamide (peptide),59 nM
20,N-((S)-1-((S)-2-(((S)-1-fluoro-6-guanidino-2-oxohexan-3-yl)carbamoyl)pyrrolidin-1-yl)-3-methyl-1-oxobutan-2-yl)isoquinoline-7-carboxamide (peptide),110 nM
21,N-((S)-1-((S)-2-(((S)-1-fluoro-6-guanidino-2-oxohexan-3-yl)carbamoyl)pyrrolidin-1-yl)-3-methyl-1-oxobutan-2-yl)quinoline-2-carboxamide (peptide),55 nM
22,N-((S)-1-((S)-2-(((S)-1-fluoro-6-guanidino-2-oxohexan-3-yl)carbamoyl)pyrrolidin-1-yl)-3-methyl-1-oxobutan-2-yl)quinoline-4-carboxamide (peptide),139 nM
23,benzyl ((S)-1-(((S)-1-(((S)-1-fluoro-6-guanidino-2-oxohexan-3-yl)amino)-3-hydroxy-1-oxopropan-2-yl)amino)-3-methyl-1-oxobutan-2-yl)carbamate (peptide),64 nM

# Stronger by Ki, values ahead:
row,Ki,Substance
1,49 nM,"Benzyl ((S)-1-((2S,4S)-2-(((S)-1-fluoro-6-guanidino-2-oxohexan-3-yl)carbamoyl)-4-hydroxypyrrolidin-1-yl)-3-methyl-1-oxobutan-2-yl)carbamate (peptide)"
2,44 nM,Benzyl ((S)-1-cyclohexyl-2-((S)-2-(((S)-1-fluoro-6-guanidino-2-oxohexan-3-yl)carbamoyl)pyrrolidin-1-yl)-2-oxoethyl)carbamate (peptide)
3,43 nM,"Benzyl ((S)-1-((S)-2-(((S)-1-fluoro-6-guanidino-2-oxohexan-3-yl)carbamoyl)pyrrolidin-1-yl)-3,3-dimethyl-1-oxobutan-2-yl)carbamate (peptide)"
4,40 nM,Benzyl ((S)-1-((S)-2-(((S)-1-fluoro-6-guanidino-2-oxohexan-3-yl)carbamoyl)piperidin-l-yl)-3-methyl-1-oxobutan-2-yl)carbamate (peptide)
5,40 nM,"Benzyl ((S)-1-((S)-2-(((S)-1-fluoro-6-guanidino-2-oxohexan-3-yl)carbamoyl)pyrrolidin-1-yl)-3-methyl-1-oxobutan-2-yl)carbamate 2,2,2-trifluoroacetate (peptide)"
6,40 nM,N-((S)-1-((S)-2-(((S)-1-fluoro-6-guanidino-2-oxohexan-3-yl)carbamoyl)pyrrolidin-1-yl)-3-methyl-1-oxobutan-2-yl)quinoline-3-carboxamide (peptide)
7,37 nM,Benzyl ((S)-1-cyclohexyl-2-((S)-2-(((S)-1-fluoro-6-guanidino-2-oxohexan-3-yl)carbamoyl)piperidin-1-yl)-2-oxoethyl)carbamate (peptide)
8,30 nM,"Benzyl ((2S,3R)-1-((S)-2-(((S)-1-fluoro-6-guanidino-2-oxohexan-3-yl)carbamoyl)pyrrolidin-1-yl)-3-methyl-1-oxopentan-2-yl)carbamate (peptide)"
9,27 nM,(S)-N-((S)-1-fluoro-6-guanidino-2-oxohexan-3-yl)-1-((4-(trifluoromethoxy)benzoyl)-L-valyl)pyrrolidine-2-carboxamide (peptide)
10,15 nM,(S)-N-((S)-1-fluoro-6-guanidino-2-oxohexan-3-yl)-1-((3-(trifluoromethoxy)benzoyl)-L-valyl)pyrrolidine-2-carboxamide (peptide)
